According to the DeepSol protein solubility set:

Test: soluble on expression in E. coli; label from the status in PepcDB or PDB records

Sequence | soluble on expression in E. coli
MEKPTRLALLKEIAEFLNEETEIYSMMQGALRLLINGSDFSTGWIFYIDEEGHHDLVSSVDLPEALSKNHCYYLTNGSCWCVQAYQNHKLTKASNIINCSRINLANHAYDKETNHITHHATVPLQSGSERFGLLNVASPNKEHYSEEDLELLESVAFQIGSAIKRIQLTNKEKENAKINERNRLARDLHDSVNQMLFSLKLTAHAAKGITTDEQAQRAFKTIEETSQNAVNEMRALIWQLKPVGLEQGLIHALHYYSKMLGLDLKVTINGLIDLSNDIEENVYRIIQEAMNNVIKHAKTNKVYLDLSQNVDYLEVDIRDNGQGFDTQSINTFLFNGLKNIKQRTQYLNGKVTIESKINQGTRIYIKIPLKLKEHPYA | not soluble
QAGFNDLFTINNTPAKTATEIYLENFPEQRNPLKSTGVNIVFKAPEGHTLAEPENKAAMDSVVQAIQDNLEGLTNTQRFGNPVELNPKLQQGVIDLMTQRGVPEENARADAANLSLITPDETIGYTTFDIDVPMPADVSDAQRQAITDAMNLGREKGLTVEAGGAGFGDPIVIEETSE | not soluble
TAGFYINSEISDYFWIKTEFNYVNRGYTHKEAGKTLKTNYYCIDVYPVTPAFHYKGAQIFAGPSVTLLVASNRDTLIGGEVKKIADNKLDGINRYDIGIMAGVEYEFNFGLNIGVRMVRGFTSLYEPVNSIQTQWFNQTYLFTLGYSI | not soluble
MGSDKIHHHHHHVDWNWNGDIRFRYDSSKTELASSPDKPADDRYRLRARFGVSPTINDELSAGLRLATGDGKNPTSTNQTLGKDFADKAIWLDEAYINYHPKALEGKVNVLLGKRDIAKTFNVVKDLVWDSDVTIEGATLQYGKDVSGKQKSGPSLIAGYYTLENYATASDPCIFAVQGAYMGTVSGADFNLGASYFDYVHMKNVAWWNSPNGPANDGKDFRILEVFGTLGGKLGGSLPATLYAQYAHNTALNSDNNAVLAGLKLGSDKKPGGWTLDGGYFYIEKYAVTPLTDGDRPMSSKYSTDIKGLKIGATYQLVQNMTLGATYFHVNPVDSSLTGSTSDHKNLVQADVAVNF | not soluble
MAHHHHHHMLPGDVVEVLVTNSHGTQDADDVERLCKALHLDPCAWCELHRSPFVPEDNFPPWLPLQKPLTLGQLLSAYVDISSSSYLLHQSFFESLFRIYSDSKPSSASSTSTTPSPDPEKVRLLEACASSETGPQLLRLLSKSSTPLCYPSLVDVLEVFSFVNIPLDRLLEVSGPLQTRRYSLANWIPATLPLSPLQLCMREVCARRSANLPAATPVGADAQRVADMLNRAAQDASRDHGNFFFGHTSHPLCCAARSMTRSAAGAGQRGMYVSFSLFGNSLFARQLQAGCTALCNPAQAKSLCSPLFLIGCGTGIAPLIAAVTQLMLRRACTAAGSAPFPCWVFYGARTKAELLYDEVLREALRTGAIAKYEYALSREEDNEKQGRYVTDLVKQNRLMVTDSLRNEGQLFVCGPAKALVSVRQLVKCDLLAEPDDDDSVQEQRLLVLEDRGRLNFDIWSTGNIFE | not soluble
AFTCHCRRSCYSTEYSYGTCTVMGINHRFCCL | soluble
MKKEKLRTENISFQYPGAATYALKDVSFSLFEGEWVSVIGQNGSGKSTLAKLLNGLFLPEAGTITVNDTMILSEETVWDVRKQIGMVFQNPDNQFVGTTVQDDVVFGLENIGMPREQMVERLNQALRLVRMEDFLNDEPHSLSGGQKQRVAIAGVLALQPSILILDEATSMLDPQGRREVVETVRQLVNEKGITVLSITHDLEEAAQSDRVIILNKGEILEEGTPEQIFKSSHMLQEIGLDVPFSVKIAELLKRNEILLQNTHLTMESLVNELWRLHSKK | not soluble
MHHHHHHSSGRENLYFQGIRMSQILEPRSEEDWTAHRTRIVCTMGPACWNVDTLVKMIDAGMNVCRLNFSHGDHETHARTVQNIQEAMKQRPEARLAILLDTKGPEIRTGFLKDHKPITLQQGATLKIVTDYNLIGDETTIACSYGALPQSVKPGNTILIADGSLSVKVVEVGSDYVITQAQNTATIGERKNMNLPNVKVQLPVIGEKDKHDILNFGIPMGCNFIAASFVQSADDVRYIRGLLGPRGRHIRIIPKIENVEGLVNFDEILAEADGIMIARGDLGMEIPPEKVFLAQKMMIAKCNVVGKPVITATQMLESMIKNPRPTRAEAADVANAVLDGTDCVMLSGETANGEFPVITVETMARICYEAETCVDYPALYRAMCLAVPPPISTQEAVARAAVETAECVNAAIILALTETGQTARLIAKYRPMQPILALSASESTIKHLQVIRGVTTMQVPSFQGTDHVIRNAIVVAKERELVTEGESIVAVHGMKEEVAGSSNLLKVLTVE | soluble
MEEHLSVMYERLRQELPKLFLQSHDYSLYSLDVEFINEILNIRTKGRTWYILSLTLCRFLAWNYFAHLRLEVLQLTRHPENWTLQARWRLVGLPVHLLFLRFYKRDKDEHYRTYDAYSTFYLNSSGLICRHRLDKLMPSHSPPTPVKKLLVGALVALGLSEPEPDLNLCSKP | not soluble
MFEPMMEMSDDAVIKVVGVGGGGGNAVEHMVRESIEGVEFMSINTDAQALRKTSVGTVIQIGGNITKGLGAGANPQVGRDAALEDKERIKEFLTGADMVFIAAGMGGGTGTGAAPVIAEVAKELGILTVAVVTKPFSFEGKKRLAFAEQGIEELSKHVDSLITIPNEKLLKVLGRGITLLEAFASANNVLKNAVQGIAELITRPGMINVDFADVRTVMSEMGHAMMGSGVARGEDRAEEAAEMAISSPLLEDIDLAGARGVLVNITAGLDMRLDEFETVGNTVKAFASDNATVVIGTSLDPDMADEIRVTVVATGIGNEKKPDITLVAGGKSKVAPVSAPVTSRVEEKAAQPLHERVEVKTQPAAAPSHSSASQSVAPKPEKESGYLDIPAFLRRQAD | not soluble
MGSDKIHHHHHHMNLRQLEYFVTLSETLSFTKTAQKFFISQTAVTKQIKLLENTLDTKLFNRNKHYVELTPAGNVFLMEAKAILLRVEEATERVHLTTIGFVGLLRIGFIKGYEKTAFSDLIFQLYNKYPNISITFFRGTESELYEKVLNSELDIVFNSVKPKNIDKTLEMKLIDKYPLKVVVHPTHPLAARKSVRFEELRGETIFKYNDGQDIEVTLLMVSANMGIAVMPSYCVRYLSQSQNLMIIAVENNNFYVDIAAVWNKENNNPALLRVLQIIKEAEQ | not soluble
MLQPPHQSLQVAAVPAQRAPVRDRDQDAPWHTEAVCRRDEAGLFFAPSKEPTAARLSREEAAKRVCARCPVMVECREHALLQPEPYGVWGGLTAAERRVVLARRRRRDVELKKAARGTIAAAG | not soluble
MGSDKIHHHHHHMQKLGIFIYSLGSGGAERVVATLLPILSLKFEVHLILMNDKISYEIPECQIHFLECSKPSENPILKFLKLPFLALKYKKLCRNLGIDTEFVFLNRPNYIALMARMFGNKTRLVINECTTPSVMYMKNNFNSLVNKFLISLLYPKADLILPNSKGNLEDLVQNFSISPKKCEILYNAIDLENIGQKALEDIALKDKFILSVGRLDKGKNHALLIRAYARLKTDLKLVILGEGVLKDELLALIKELNLEEKVLLLGFDNNPYKYMAKCEFFAFASVFEGFSNVLIESLACSCAVVCTDHKSGARELFGDDEFGLLVEVDNENSMFQGLKTMLEDDKLRKAYKNKAKTRAKAFDKVKIARDALKYLLG | not soluble
MTSLQRKGPQTRILSTGEEEKLKRDQALVSAFKQQKLEKEAQKNWDLFYKRNSTNFFKDRHWTTREFEELRSCREYEGQKLTLLEAGCGVGNCLFPLLEEDSNIFAYACDFSPRAVDYVKQHPLYNAERCKVFQCDLTRDDLLDHIPPESVDAVTLIFVLSAVHPEKMHLVLLNVYKVLKPGRSVLFRDYGLNDHAMLRFKAGSKLGENFYVRQDGTRSYFFTDEFLAKLFVDAGYEEVVNEYVFRETVNKKEGLCVPRVFLQSKFRKPPKDPAPTTDSASLLRKEF | not soluble
MVLASSSAFALKDDVNQPINIVSDNQSLDMEKSVVTFTDNVVITQGSIVIKANKVVITRPAEKSGKKETVEAFGTPVTFHQQLDNGKPVDGKANKVHYDLGNEFLTLTNNAELKQLDSKINGSVITYDVKKQQLKANGNGKSRVTTVLIPSQLQQAKGK | not soluble
MFGNLQGKFIIATPEMDDEYFDRTVIYICEHNDNGTIGVIINTPTDLSVLELLTRMDFQMAKPRIYTQDQMVLNGGPVNQDRGFIVHSKTDHEFTHSYKVTDDITLTTSGDVLDSFGTQTAPEKFIVCLGCSTWKPHQLEQEIAQNYWLLSEANNQTLFETSYLDRWVEANEMLGISGILAPAGRALEHHHHHH | soluble
